The target of this test is T1, GST-Rev1 (full-length Rev1) (S. cerevisiae, UniProt P12689 1-985).
T1 construct: Rev1, yeast, full-length; Held on the beads by GST during the incubation; Rev1 was cut from GST by PreScission protease only at the elution step; not shown: GST, N-terminal, kept
T1 sequence (looked up): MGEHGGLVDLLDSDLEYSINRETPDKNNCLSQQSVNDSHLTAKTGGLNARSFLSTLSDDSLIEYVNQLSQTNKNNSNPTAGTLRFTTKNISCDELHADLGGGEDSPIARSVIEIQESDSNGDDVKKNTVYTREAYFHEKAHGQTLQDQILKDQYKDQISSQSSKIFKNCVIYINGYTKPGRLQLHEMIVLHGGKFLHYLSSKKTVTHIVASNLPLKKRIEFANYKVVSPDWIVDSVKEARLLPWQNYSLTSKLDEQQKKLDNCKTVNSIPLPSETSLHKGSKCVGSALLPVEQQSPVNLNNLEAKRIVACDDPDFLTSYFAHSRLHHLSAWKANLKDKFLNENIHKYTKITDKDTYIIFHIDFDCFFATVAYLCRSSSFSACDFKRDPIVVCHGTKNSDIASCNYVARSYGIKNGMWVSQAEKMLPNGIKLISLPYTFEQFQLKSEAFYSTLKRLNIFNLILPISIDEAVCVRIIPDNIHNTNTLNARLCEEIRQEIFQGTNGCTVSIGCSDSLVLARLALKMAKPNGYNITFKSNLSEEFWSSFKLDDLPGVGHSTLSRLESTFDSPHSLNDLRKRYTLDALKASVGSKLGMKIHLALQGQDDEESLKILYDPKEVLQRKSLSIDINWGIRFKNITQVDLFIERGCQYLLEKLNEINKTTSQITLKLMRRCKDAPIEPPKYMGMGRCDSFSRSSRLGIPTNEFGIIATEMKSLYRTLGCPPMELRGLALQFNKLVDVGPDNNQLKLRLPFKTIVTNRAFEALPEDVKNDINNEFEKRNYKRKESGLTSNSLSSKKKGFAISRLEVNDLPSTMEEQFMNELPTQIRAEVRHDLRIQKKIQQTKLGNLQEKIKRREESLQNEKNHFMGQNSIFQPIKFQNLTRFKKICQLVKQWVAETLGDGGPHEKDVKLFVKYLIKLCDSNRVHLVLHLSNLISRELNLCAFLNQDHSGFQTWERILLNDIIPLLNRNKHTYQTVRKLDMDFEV
Kind of test: pull-down; GST-Rev1 (5 μg) immobilised on glutathione-Sepharose beads, incubated with purified PCNA (3 μg) overnight on ice; 50 mM Tris/HCl pH 7.5, 100 mM NaCl, 1 mM EDTA, 1 mM DTT, 10% glycerol, 0.01% Nonidet P-40; five washes; eluted by PreScission protease cleavage of Rev1 from GST; SDS-PAGE. The following applies: both partners purified.

Data on one molecule can be found in paper PMC4990258, “Mutations at the Subunit Interface of Yeast Proliferating Cell Nuclear Antigen Reveal a Versatile Regulatory Domain” (PLoS ONE, 2016).

B1: wild type PCNA (proliferating cell nuclear antigen, Saccharomyces cerevisiae) (natural protein, S. cerevisiae)
chain: MLEAKFEEASLFKRIIDGFKDCVQLVNFQCKEDGIIAQAVDDSRVLLVSLEIGVEAFQEYRCDHPVTLGMDLTSLSKILRCGNNTDTLTLIADNTPDSIILLFEDTKKDRIAEYSLKLMDIDADFLKIEELQYDSTLSLPSSEFSKIVRDLSQLSDSINIMITKETIKFVADGDIGSGSVIIKPFVDMEHPETSIKLEMDQPVDLTFGAKYLLDIIKGSSLSDRVGIRLSSEAPALFQFDLKSGFLQFFLAPKFNDEE
notes: PCNA (POL30 gene product), Saccharomyces cerevisiae, wild type; the oligomeric state of the purified protein was not measured here; also called wt PCNA; yeast PCNA; source: yeast BJ5464, overexpressed as GST fusion, purified on glutathione-Sepharose 4B, GST removed by PreScission protease; not shown: GST, N-terminal, cleaved
As to B1, the binding result is “binds”.
